According to patent US20200116725:

Key:
[1] = tested on: P120 thrombin-cleavable peptide, Biotin-GGGSGGGSGGfPRSGGGGGC
[2] = tested on: P213 MMP9-cleavable peptide, Biotin-GGGPLGVRGKGGC
[3] = tested on: P220 MMP9-cleavable peptide, Biotin-GGGGGGGGGGPLGVRGKGGC
[4] = tested on: P113 thrombin-cleavable peptide, Biotin-SGGfPRSGGSGGC

Chain of MMP9 (Active, Human, Recombinant, PF140, Merck Millipore) (chain, as listed by the source): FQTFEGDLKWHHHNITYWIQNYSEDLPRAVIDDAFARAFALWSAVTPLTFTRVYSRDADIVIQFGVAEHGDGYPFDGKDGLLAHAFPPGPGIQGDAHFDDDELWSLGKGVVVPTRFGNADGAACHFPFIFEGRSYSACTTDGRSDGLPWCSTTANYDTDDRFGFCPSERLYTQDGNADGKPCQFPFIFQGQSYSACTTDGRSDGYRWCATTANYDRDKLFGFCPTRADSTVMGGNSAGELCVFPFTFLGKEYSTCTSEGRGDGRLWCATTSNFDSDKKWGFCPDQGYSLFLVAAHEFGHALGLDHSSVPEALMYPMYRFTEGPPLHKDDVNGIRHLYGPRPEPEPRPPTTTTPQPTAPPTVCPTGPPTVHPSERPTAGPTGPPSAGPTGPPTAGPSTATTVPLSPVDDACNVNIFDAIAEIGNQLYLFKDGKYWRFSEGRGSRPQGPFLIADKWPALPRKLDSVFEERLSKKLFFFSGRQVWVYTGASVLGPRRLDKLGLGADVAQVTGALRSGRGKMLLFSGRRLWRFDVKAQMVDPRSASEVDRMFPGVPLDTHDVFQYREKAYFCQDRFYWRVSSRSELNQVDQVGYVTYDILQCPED
Chain of P120 thrombin-cleavable peptide, Biotin-GGGSGGGSGGfPRSGGGGGC (chain, as listed by the source): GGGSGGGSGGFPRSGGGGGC

With “MMP9 (Active, Human, Recombinant, PF140, Merck Millipore)” the “% Cleavage (free AuNC fraction: 7-12 mL), gel filtration chromatography with catalytic activity readout; AuNC-P120-NAv + MMP9 (12 h)” value [1] was 7.1%, the “fraction of AuNCs cleaved from AuNC-P213-NAv within 1 h, FCS, 50 nM MMP9” value [2] was “only 20% AuNCs are cleaved from the AuNC-P213-NAv complex” and the “rate of cleavage by FCS (linear region, 50 nM MMP9), AuNC-P213-NAv complex” value [2] was “only 0.08% AuNC cleaved per minute”. For the same substance, the “% Cleavage (free AuNC fraction: 7-12 mL), gel filtration chromatography with catalytic activity readout; AuNC-P220-NAv + MMP7/9/13 (12 h)” value [3] was “MMP9: 54.9%”, the “% Cleavage (free AuNC fraction: 7-12 mL), gel filtration chromatography with catalytic activity readout; AuNC-P220-NAv + MMP9 (12 h)” value [3] was 75.1% and the “fraction of AuNCs cleaved from AuNC-P220-NAv within 1 h, FCS, 50 nM MMP9” value [3] was 80% AuNCs are cleaved within the first hour of incubation with MMP9. For the same substance, the “rate of cleavage by FCS (linear region, 50 nM MMP9), AuNC-P220-NAv complex” value [3] was 3% AuNC cleaved per minute.
In the case of “MMP13 (Active, Human, Recombinant, 444287)”, the “% Cleavage (free AuNC fraction: 7-12 mL), gel filtration chromatography with catalytic activity readout; AuNC-P220-NAv + MMP7/9/13 (12 h)” value [3] is reported as “MMP13: 29.8%”.
With “thrombin from human plasma (T7009, Sigma)” the “% Cleavage (free AuNC fraction: 7-12 mL), gel filtration chromatography with catalytic activity readout; AuNC-1:5-P120-NAv + THR (1 h), ca. 20 biotin ligands per AuNC” value [1] was 49.6%, the “% Cleavage (free AuNC fraction: 7-12 mL), gel filtration chromatography with catalytic activity readout; AuNC-1:20-P120-NAv + THR (1 h), ca. 5 biotin ligands per AuNC” value [1] was 89.9% and the “% Cleavage (free AuNC fraction: 7-12 mL), gel filtration chromatography with catalytic activity readout; AuNC-P120-NAv + THR (12 h)” value [1] was 90.2%. The “% Cleavage (free AuNC fraction: 7-12 mL), gel filtration chromatography with catalytic activity readout; AuNC-P113-NAv + THR (12 h)” value [4] was 21.8% and the “% Cleavage (free AuNC fraction: 7-12 mL), gel filtration chromatography with catalytic activity readout; AuNC-P220-NAv + THR (12 h)” value [3] was 5.5%.
